Results published in the nanobody polyreactivity screen of Harvey et al. (2022).

Experiment: yeast display, Sf9 membrane polyspecificity reagent, FACS + sequencing; frameworks hold sequencing errors
In short: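 Using colony PCR, genes from sorted yeast display clones were amplified, then sequenced on MiSeq at 2 × 250 and filtered by CDR length. The clones had been stained with 10% biotinylated, detergent-solubilized Sf9 membrane reagent for 1 hour at 4 °C and sorted by FACS into low and high (top ~1%) gates on anti-HA and streptavidin fluorescence. Polyreactivity labels come from the gate of origin.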

Sequence | polyreactivity (PSR sort gate)
QVQLVESGGGLVQAGGSLRLSCAASGRTFYRNDMGWYRQAPGKERELVAAITSSGGTTYADSVKGRFTISRDNAKNTVYLQMNSLKPEDTAVYYCAAVYAYPNIYDYWGQGTQVNVSS | low polyreactivity
QVQLVESGGGLVQAGVSLRIRCAASGSIFFFNAMGWYRQAPGKEREFVAAITSSSGRTYYAYSVKVRFTISRDNAKNTVYLQMKSLKPEDTAVYYCAAQVPEDNETVDYWGQGTQVTVSS | low polyreactivity
QVQLVESGGGLVQAGGSLRLSCAASGFIFADYAMGWYRPAPGKERELVAAISSGGRTKYADSVKGRFTISRDNAKNTVYLQMNSLIPDDTAVYYCAKALRRVPRIQAYPVPQGDYWGHGTQVTVSS | high polyreactivity
QVQLVESGGGLVQAGGSLRLSCAASGSIFGGNAMGWYRQAAGKERELVAAITQSGGRTYYADSVKGRFTISRDNAKNTVYLQMNSLKPEDTAVYYCNRVYKSQTTDSFPLSYYYWGQGTQVTVSS | high polyreactivity
QVQLVESGGGLVQAGGSLRLSCAASGSTFWTNDMGWYRQAPGKERELVAAISQSAGDTYYADSVKGRFTISRDNAKNTVYLQMNSLKPEDTAVYYCAADLVFYPFTWDGYYYWGQGTQVTVSS | low polyreactivity
QVQLVESGGGLVQAGGSLRLSCAASGRIFPANVMGWYRQAPGKERELVATIDNGGGTYYADSVKGRFTISRDNAKNTVYLQMNSLKPEDTAVYYCARDRHVRWGLKMDYWGQGTQVTVSS | low polyreactivity
QVQLVESGGGLVQAGGRLRLSCAASGFTFYYNDMGWYRQAPGKERELVAAITWSGGSTYYADSVKGRFTISRDNAKNTVYLQMNSLKPEDTAVYYCNARYWVHGYRYYYWGQGTQVTVSS | high polyreactivity
QVQLVESGGGLVQAGGSLRLSCAASGFIFKSYAMGWYRQAPGKERELVAAISGRGGSTYYADSVKGRFTISRDNAKNTVYLQMNSLKPEDTAVYYCNVGPSTYYQYDYWGQGTQVTVSS | high polyreactivity
QVQLVESGGGLVQAGGSLRLSCAASGRTFVGYAMGWYRQAPGKERELVAAISWSGGRTYYADSVKGRFTISRDNAKNTVYLQMNSLKPEDTAVYYCAALLYRTPYYPYYGYDYWGQGTQVTVSS | high polyreactivity
QVQLVESGGGLVQAGGSLRLSCAASGITFYGYTMGWYRQAPGKERELVATITRGGSTYYADSVKGRFTISRDNAKNSVYLQMNSLKPEDTAVYYCAADLKGNYYLGIARYVLYYWGQGTQVTVSS | low polyreactivity
QVQLVESGGGLVQAGGSLRLSCAASGFTFTPNAMGWYRQAPGKERELVAAITWNGGTTYYADSVKGRFTISRDNAKNTVYLQMNSLKPEDTAVYYCNADGLILYDYWGQGTQVTVSS | low polyreactivity
QVQLVESGGGLVQAGGSLRLSCAASGFTIKWYTMGWYRPAPGKERELVAGISRRGGSTYYADSVKGRFTISRDNAKNTVYLEMNSLKPEDTAVYYCNVYSRTHYQTYTDDYWGQCTQVTVSS | high polyreactivity
QVQLVESGGGLVQAGGSLRLSCAASGRIFRSYAMGWYRQAPGKERELVAAITWSGGSTYYADSVKGRFTISRDNAKNTVYLQMDSLKPEDTAVYYCARVVTKKYSHTGYEYWGQGTQVTVSS | high polyreactivity
QVQLVESGGGLVQAGGSLRLSCAASGITFLWNVMGWYRQAPGKERELVATITSIGGITNYADSVKGRFTISRDNAKNTVYLQMNSLKPEDTAVYYCARDDRDIRGESGREGFLYDYWGQGTQVTVSS | low polyreactivity
QVQLVESGGGLVQAGGSLRISCAASGSTLGYYAMGWYRPAPAKESELVAAISRGGGSTYYADSVKGRFTISRDNAKNTVYLQMNSLKPEVTAVYYCNKYFAYGDFDYWGQGTQVTVSS | high polyreactivity
QVQLVESGGGLVQAGGSLRLSCAASGSTFGDYAMGGYRQAPGKERELVAAISFSDGSTYYADSVKGRFTISRDNAKNTVYLQMNSLKPEDTAVYYCAKDAYWGYRWYTYDYWGQGTQVTVSS | low polyreactivity

Sequence | polyreactivity (PSR sort gate)
QVQLVESRRGLVQAGGSLRLSCAASGRISNEYAMVWSRQAPGKERELVATITFSGGDTYYADSVKGRFTISRHNAKNTVYLHKNSLKPEDSAVYYCAASKWRSYCGGWWRLQFDYWGQGTQVTVSS | low polyreactivity
QVQLVESGGGLVQPGGSLRLSCAASGRTFTGYTMGWYRQAPGKERELVAAIRWSGDRTYYADSVKGRFTISRDNAKNTVYLQMNSLKPEDTAVYYCAAARYVYGKFVGFDYWGQGTQVNVSS | high polyreactivity
QVQLVESGGGLVQAGGSLRLSCAASGSTFSWYAMGWYRQAPGKERELVAAITSGGSTQYADSVKGRFTISRDNAKNTVYLQMNSLKPEDTAVYYCATRRYKWGVRYDYWGQGTQVTVSS | high polyreactivity
QVQLVESGGGLVQAGGSLRLSCAASGGILWFYAMGWYIQAPGKEREFVAAIDLGGGSTYYADSVKGRFTISRDNAKTTVYLQMNSLKPEDTAVYYCNAETSGHYSTIMDYWGQGTQVTVSS | low polyreactivity
QVQLVESGGGLVQAGGSLRLSCAASGRILYLNDMGWYRQAPGKERELGAAITRRAGSTSYADSVKGRFTISRDNAKNTFYLQMNSLKPEDTAVYYCAKATSRRGFYYWGQGTQVTVSS | high polyreactivity
QVQLVESGGGLVQAGGSLRLTCAASGYIFNQYTMGWYRQAPGKERELDADISSGGSTKYADSVKVRFTISRDNAKNTVYLQMISRKAEDTAFYYCNAEYVYGYPTAYDWEYDYWGQGTQVTLSS | high polyreactivity
QVQLVESGGGLVQAGGSLRLSCAASGSILFGNAMGWYRQAPGKERELVAAITVSGGSTYYADSVKGRFTISRDNAKNTVYLQMNSLKPEDTAVYYCAAGGWWHYRPQSYSGPFDYWGQGTQVTVSS | low polyreactivity
QVQLVESGGGLVQAGGSLRLSCAASGFTFTLYAMGWYRQAPGKERELVAAISWNGSTYYADSVKGRFTISRDNAKNTVYLQMNSLKPEDTAVYYCNADVWISYNNAYVTLDYWGQGTQVTVSS | high polyreactivity
QVQLVESGGGLVQAGGRLRLSCAASGSTLNRNAMGWYRQAPGKERELVAAIRVSGGSTYYSDSVKGRFTISRDNAKNTVYLQMNSLNPEDTAVYYCGTRYVRARWYGYWGEGTQVTVSS | high polyreactivity
QVQLVESGGGLVQAGGSLRLSCAASGSIFSAYAMGWYRQAPGKERELVAAITKSSVTYYADSVKGRFTISRDNAKNTVYLQMNSLKPEDTAVYYCAAYSPRPSDLYSPIAYYYWGQGTQVTVSS | low polyreactivity
QVHLVESGGVLVQAGGSLRLSCAASAGNFDTYAMGRYRQAPGKEREMVADITWSGGSTYYADSVKGRFTISRDNAKNTVYLQMNSLKPEDTAVYYCNADDPSKLGYEPDYWGQGTQVTVSS | low polyreactivity
QVQLVESGGGLVQAGGSLRLSCAASGSTFRVNAMGWYRQAPGKERELVAAISYRGGSTYYADSVKGRFTISRDNAKNTVYLQMNNLKPEDTAVYYCNADLKRRTYGPDSYYWGQGTQVTVSS | high polyreactivity
QVQLVESGGALVQAGGSLRLSCAASGSTFVQNAMGWYRQAPGKDRELVAAITIGGGSTYYADSVKGRFTISRDNAKNTVYLQMNSLKPEDTAVYYCAVEVGNPQLAYSYDYWGQGTQVTVSS | low polyreactivity
QVQLVESGGGLVQAGGSLRLSCAASGRTFKPYALGWYRQAPGKERELDAAISTGGSTNYADSEKGRFTISRDNAKNSVYLQMNSLKPEDTAVYYCAADYFLYSYFLGLMDYWGQGTLVTVSS | low polyreactivity
QVQLVESGGGLVQAGGSLRLSCAASGSTFPKNAKGWYRQAPGKERELVAAINTGGSTYYADSVKGRFTISRDNAKNTVYLQINSLKPEDTAVYYCAARDNYHRDVGHPYDYWGQGTQVTVSS | low polyreactivity
